According to patent publication US12583913B2, “Antibody specific to Staphylococcus aureus, therapeutic method and detection method using same” (priority 2019, dated 2026):

B1: GMA-2105 F(ab): fragment antigen-binding fragment of GMA-2105 (antibody, V domains shown)
VH: EVKLEESGGGLVQPGGSMKLSCAASGFTFSDAWMDWVRQSPEKGLEWVAEIRTKANNHATYYAESVKGRFTISRDDSKSSVYLQMNSLRAEDTGIYYCTNVYYGNNDVKDYWGQGTSVTVSPAS
VL: DIVMTQSQKFMSTSVGDRVSVTCKASQNVDIYVAWYQQKPGQSPKALIYSASYRFSGVPDRFTGSGSGTDFTLSISNVQSEDLAEYFCQQYNNYPYTFGGGTKLEIKRADAAPTVSIFPPSSEGRI
B2: chimeric GMA-2105 (antibody, V domains shown)
VH: B1 VH
VL: B1 VL
B3: GMA-2105: inhibitory mouse anti-staphylocoagulase monoclonal antibody raised against peptide […]; VH SEQ ID NO 6, VL SEQ ID NO 8 (protein)
chain 1: B1 VH
chain 2: B1 VL

Columns and labels:
GMA-2105 = assay: Solid phase competitive inhibition ELISA with variant staphylocoagulase peptides; format: binding; settings: peptide incubated with GMA-2105 in solution overnight at 4 degrees C
Text: There are reported strain specific sequence differences at residue positions 8 and 9 of staphylocoagulase (SEQ ID. No.: 2). […] Wantabe, et al., Genetic Diversity of Staphylocoagulase Genes (coa): Insight into the evolution of variable chromosomal virulence factors in Staphylococcus aureus. PLoS ONE 2009; 4(5): 1-11, incorporated herein by reference in its entirety. […] 9 (“Mutated Peptide Ala 8”), position 9 of SEQ ID NO. 9 (“Mutated Peptide Ala 9”), and position 8 and 9 of SEQ ID NO.: 9 (“Mutated Peptide Ala 8 & 9”) (see FIG. 13). We measured the binding of each synthetic peptide (Mutated Peptide Ala 8, Mutated Peptide Ala 9, and Mutated Peptide Ala 8 & 9) to GMA-2105 in solution.
We tested binding of Mutated Peptide Ala 8, Mutated Peptide Ala 9, and Mutated Peptide Ala 8 & 9 to GMA-2105 in a solid phase competitive inhibition assay. GMA-2105 was incubated with increasing concentrations of each of Mutated Peptide Ala 8, Mutated Peptide Ala 9, and Mutated Peptide Ala 8 & 9 (referred to hereafter as “GMA-2105—Mutated Peptide samples”) in solution overnight at 4 degrees C. The incubation was followed by transfer of the GMA-2105—Mutated Peptide samples to wells coated with the non-mutated peptide, […] (SEQ ID. No.: 9) and blocked with 0.1% BSA PBS. After a 30-minute incubation, wells were washed with PBS containing 0.05% TWEEN 20, followed by addition of goat anti-mouse secondary antibody conjugated to horseradish peroxidase. Substrate ortho-phenylenediamine conversion to product was measured at 490 nm using a spectrophotometer. The negative control as was a purified irrelevant synthetic peptide.

staphylocoagulase = assay: Western blot detection of staphylocoagulase in cultured bacteria supernatants; format: binding; settings: supernatants of S. aureus strains COL and MW2 (MRSA)
Text: Lanes A, B, and C contain concentrated (10×) supernatants from identically cultured bacteria. Lane A: S. saprophyticus (coagulase negative bacterium control); Lane B: S. aureus strain COL (MRSA); Lane C: S. aureus strain MW2 (MRSA); Lane D: media blank; Lane E: staphylocoagulase peptide conjugated to ovalbumin (SEQ ID NO.: 9).

[1] = target: T1, staphylocoagulase peptide SC(1-10) […] (SEQ ID NO: 9) (Staphylococcus aureus, UniProt P17855); assay: Solid-phase ELISA on staphylocoagulase peptide; format: binding, S. aureus
T1 construct: made in house; host or cells: chemical synthesis
Procedure: Two additional 50 μg injections (peptide-KLH conjugate in incomplete Freunds adjuvant) were given on days 61 and 111. A serum sample from each mouse was collected on Day 122 and the antibody titer measured by solid-phase Enzyme Linked Immunosorbant Assay (ELISA) using the staphylocoagulase and/or vWbp peptide conjugated to ovalbumin coated on 96-well ELISA plates at 2 ug/ml. Uncoated areas of the wells were blocked with albumin from bovine serum (BSA). The wells were then incubated with dilutions of the mouse serum to test whether the serum contained antibodies to the staphylocoagulase and/or vWbp peptide. Bound antibodies were detected with anti-mouse IgG secondary antibody conjugated to horseradish peroxidase. The plates were then incubated with o-phenylenediamine (OPD) substrate which undergoes a color change in the presence of HRP the intensity of which can be measured using absorption at 490 nm wavelength in a microplate reader. […]
Purified chimeric GMA-2105 and murine GMA-2105 antibody were tested against staphylocoagulase peptide […] […] Antibody-antigen complex was detected using a goat anti-mouse secondary antibody conjugated to horseradish peroxidase or goat anti-human secondary antibody conjugated to horseradish peroxidase. Substrate ortho-phenylene diamine conversion to product was measured at 490 nm using a spectrophotometer

[2] = target: T2, BODIPY-labeled staphylocoagulase SC (S7C) (1-325) (Staphylococcus aureus, UniProt P17855, S33C); assay: Equilibrium binding of BODIPY-labeled staphylocoagulase, fluorescence titration in solution; set-up: species or system S. aureus
T2 construct: BODIPY fluorophore (chemical label)
Procedure: In solution, the antibody bound Ser 7 to Cys mutant of SC(1-325). Binding studies were done using the BODIPY-labeled staphylocoagulase SC (S7C) (1-325) (SEQ ID NO.: 2, positions 1-325 with Cys at position 7). The change of fluorescence upon antibody binding is measured as a function of the unlabeled ligand concentration and fitting the data to the quadratic binding equation gives the dissociation constant (KD), and the stoichiometry (n). Panizzi, et al., Fibrinogen substrate recognition by staphylocoagulase-(pro)thrombin complexes, J. Biol. Chem. 2006; 281:118-95.
Direct binding of BODIPY-SC(S7C) at 27 nM (●) and 130 nM (∘) probe titrated with GMA-2105 caused fluorescence increase, whereas unlabeled SC(1-246) (triangles) displaced BODIPY-SC(S7C) labeled staphylocoagulase from binding the antibody. Simultaneous fit of all datasets provide the Kd for the unmodified competitor to the antibody.
Concentrations were: BODIPY-staphylocoagulase (1-325) at 27 nM (●) and 130 nM (∘) titrated with GMA-2105 and unlabeled staphylocoagulase (1-246)(residues 1-246 of SEQ ID No. 2).
In FIG. 29, BODIPY®-labeled staphylocoagulase fragment (1-325) at 27 nM (●) and 130 nM (∘) titrated with chimeric GMA-2105 in solution in the presence of unlabeled staphylocoagulase fragment (1-246) (▴).

SC(1-246)●prothrombin^3Q = SC(1-246)●prothrombin^3Q (Staphylococcus aureus, UniProt P17855); assay: Inhibition of prothrombin^3Q activation by SC(1-246), S2238 hydrolysis; format: biochemical, S. aureus; settings: read-out: affinity of inhibition of prothrombin^3Q activation by SC(1-246); prothrombin 1 nM, SC(1-246) 5.6 nM and 28 nM

| Molecule | inhibition of GMA-2105 binding to wells coated with […] (GMA-2105) | binding to staphylocoagulase peptide in ELISA [1] | further results |
| --- | --- | --- | --- |
| Mutated Peptide Ala 9: synthetic peptide with alanine substitution at position 9 of SEQ ID NO. 9 (IVTKDYSKAS) | inhibited binding of antibody | – | – |
| Mutated Peptide Ala 8 & 9: synthetic peptide with alanine substitutions at positions 8 and 9 of SEQ ID NO. 9 (IVTKDYSAAS) | inhibited binding of antibody | – | – |
| Mutated Peptide Ala 8: synthetic peptide with alanine substitution at position 8 of SEQ ID NO. 9 (IVTKDYSAES) | inhibited binding of antibody | – | – |
| B1 | – | capable of binding | binding of staphylocoagulase in cultured bacteria, Western blot (staphylocoagulase): bind staphylocoagulase |
| B2 | – | binding | binding characteristics compared with murine GMA-2105 ([2]; FIG. 30): essentially identical; stoichiometry ([2]; chimeric antibody): 2 mol staphylocoagulase/mol chimeric antibody |
| B3 | – | – | Kd (SC(1-246)●prothrombin^3Q): 0.9 nM |
